Measured values as given in doi:10.1101/2025.06.25.661518.

Columns and labels:
[1] = system: BALF2 wild type (Epstein-Barr virus (EBV)); test: fluorescence anisotropy; details: not in material (Methods absent); anisotropy titrations in triplicate
[2] = system: BALF2 Δ52 (Epstein-Barr virus (EBV)); test: fluorescence anisotropy; details: not in material (Methods absent); anisotropy titrations in triplicate

## 16-mer ssDNA
[1]
  Kd: 232 nM
[2]
  Kd: 1040 nM
